This data set is described as follows: Stability by RP-HPLC for peptide quantification. The data set is classed as physicochemical. As to conditions: lyophilized, 40° C., six-months time point, all three concentrations (FIGS. 6-8). The text has this:
The stability was also monitored for pre-lyophilization formulations. Stability assays basically include appearance (visual inspection), pH, FLS, peptide fluorescence, and RP-HPLC for peptide quantification.

Here are results for one substance from patent US20080187554A1, “Process for producing stable HIV Th-CTL peptides” (Wyeth, priority 2005, published 2008).

Take “H-Lys-Gln-Ile-Ile-Asn-Met-Trp-Gln-Glu-Val-Gly-Lys-Ala-Met-Tyr-Ala-Lys-Ala-Phe-Ser-Pro-Glu-Val-Ile-Pro-Met-Phe-OH (H-KQIINMWQEVGKAMYAKAFSPEVIPMF-OH; also: acetate salt) [Peptide A, HIV Th/CTL peptide]”: the “potency change at accelerated temperature” value was “potency decreases”.
